In patent US20240190987A1, “Engineered EpCam Binding Antibodies” (TigaTX, priority 2021, published 2024):
Substitutions are numbered along the chain they refer to. Names and notes keep the numbering of the source. “Also recorded” adds a separate entry of the source. Blank lines part the entries; values can stand above or below the molecule they belong to.

How the values were obtained:
[1] = molecular target: Ab0902 (LS2B R5M2); experiment: BLI indinavir-dependent binding of LS2A Ab0223 to LS2B Ab0902
Method: Binding was measured by biolayer interferometry (BLI). Ab0902 (LS2B R5M2) was captured by anti-hIgG Fc capture (AHC) biosensors and kinetics was measured to Ab0223 (LS2A humanized parent) in the presence of […].
A series of biophysical experiments was conducted to further elucidate a mechanism for Indinavir switch assembly. Biolayer interferometry experiments were performed to measure LS2A and LS21B assembly in the presence and absence of saturating concentrations of Indinavir. […] A BLI kinetics assay was performed to assess the reversibility kinetics of the LS2A/LS2B complex upon Indinavir washout.
(§1) Bio-layer interferometry (BLI) data were measured using an Octet RED384 (ForteBio) instrument. Antigens of interest were immobilized on an AHC biosensor and loaded until a 0.4-0.6-nm signal was achieved. Purified antibodies were used as the analyte premixed with 10 μM Indinavir or 0.05% DMSO vehicle. PBSTB (PBS, pH 7.4, 0.05% Tween-20, 0.2% BSA) was used for all buffers for BLI. Data were analyzed using ForteBio Octet analysis software and kinetic parameters were determined using a 1:1 monovalent binding model.

[2] = test system: LS2A R3M1 (Ab0786); experiment: BLI binding of LS2B variants to LS2A R3M1 (Ab0786) with indinavir; settings: for binding to LS2A clones (FIG. 17): biotinylated Ab0785 (R2M34) or Ab0786 (R3M1) captured, indinavir present; for Kd: five-point kinetics, values equal Table 15 column LS2A Ab0786
Method: Binding kinetics were measured by biolayer interferometry (BLI). Biotinylated-Ab0785 (LS2A R2M34 Fab) or biotinylated-Ab0786 (LS2A R3M1 Fab) was captured by streptavidin biosensors and binding to Ab1071 (LS2B R5M2 Fab), Ab1072 (LS2B R7M1 Fab), and Ab1073 (LS2B R7M2 Fab) was measured in the presence of […].
In R6 of engineering, alanine scanning of clone R4M16 were performed to find improved binding to LS2A R3M2 (Ab0787) and LS2A R3M1 (Ab0786). Variants were screened for binding to LS2A (Ab0223) and LS2A R3M2 (Ab0787) with a single-point kinetic screen.
In R7, combination mutants from R6 were designed to generate further affinity variants. Variants were screened for binding to LS2A Ab0787 and Ab0786 with a single-point kinetic screen. Five-point kinetics was measured for a subset of molecules.
as §1

[3] = Differential scanning fluorimetry (DSF) melting temperature; type: physicochemical
Method: DSF was performed on a LC480 Lightcycler Instrument II (Roche). Purified recombinant protein was diluted to 5 μM in DSF buffer (PBS, pH 7.4, Sypro Orange 5×) with small molecule (10 μM VTX) or vehicle (0.05% DMSO) and then heated with a temperature gradient (0.01° C./s) from 25 to 95° C. Data were continuously acquired at ˜465 nm (excitation) and ˜580 nm (emission). Data was analyzed to generate first derivative curves in which the curve maximum was reported as the melting temperature of the protein.

[4] = test system: Ag0067 (LS2A R2M9); experiment: BLI LITE Switch indinavir washout/reversibility kinetics; type: binding
Method: Binding was measured by biolayer interferometry (BLI). Biotinylated-Ag0067 (LS2A R2M9) was captured on streptavidin biosensors. Binding of 50 nM Ab1073 (LS2B R7M2) to Ag0067 was allowed to reach steady-state in the presence of 1 μM IDV. Complex dissociation was subsequently performed for 2 hours in buffer containing (1) 50 nM Ab1073 and 1 μM IDV, (2) 50 nM Ab1073 and vehicle (washout), and (3) vehicle only. […] In 2 hours of IDV washout, the LITE Switch dissociated to nearly 0% complex, whereas complete complex dissociation was observed within 10 min upon removal of both Ab1073 and IDV.
LITE Switch indinivir (IDV) washout/reversibility kinetics (FIG. 21) were measured by biolayer interferometry (BLI) on an Octet® Qke (Sartorius) instrument. Biotinylated scFv-Fc Ag67, in the presence of 1 μM IDV or 0.05% DMSO vehicle, was immobilized on streptavidin biosensors and loaded to a signal of 1.2-1.8 nm. After loading, biosensors were blocked with 10 μM biotin containing 1 μM IDV or vehicle. […] Data were analyzed using ForteBio Data Analysis HT software version 12.0.2.59. Dissociation constants were determined using a 1:1 monovalent binding model, local fitting, and with dissociation baseline to zero. Data were additionally analyzed using GraphPad Prism 9 software version 9.1.2 (225) with a one-phase exponential decay nonlinear regression model. […]

[5] = SPR binding of free indinavir to LS2A clones; settings: read-out: Affinity to free Indinavir by SPR
Method: Detailed methods are described in the methods section. […] A 3-fold serial dilution of indinavir was injected over sensor chip and binding was measured using single-cycle kinetics. The data was double reference subtracted and fit to a 1:1 Langmuir kinetic model.
All assays were performed at 25° C. in 1×PBS-P+ buffer made from a 10× buffer stock (Cytiva 28995084). […] For Ab0759, a single-cycle kinetics experiment was performed with five sequential injections of 3-fold serial diluted (37, 111, 333, 1000, 3000 nM) indinavir at 30 μL/min for 240 seconds each and dissociation was monitored for 600 seconds. […] The data was double referenced subtracted to the reference lane and five sequential injections of 0 nM indinavir. The kinetic data was fit to a 1:1 Langmuir model to determine the association and dissociation rate constants.

B1: Ab0223: LS2A humanized parent (antibody, V domains shown)
VH: QVQLVQSGAEVKKPGASVKVSCKASGYTFTSYWMHWVRQAPGQGLEWMGIIHPNSGGTSYAQKFQGRVTMTRDTSTSTVYMELSSLRSEDTAVYYCAMGDYVSRDYWGQGTLVTVSS
VL: EIVLTQSPGTLSLSPGERATLSCRASSSVSSSYLHWYQQKPGQAPRLLIYSTSSRATGIPDRFSGSGSGTDFTLTISRLEPEDFAVYYCQQYSGYLFTFGQGTKLEIK
Kd ([1]; in the presence of 10 μM IDV, read-out: affinity for binding to Ab0902): 1.6 nM
binding to Ab0902 in the absence of Indinavir ([1]; no indinavir): no binding was detected; also recorded: no detectable interaction

B2: Ab1071: LS2B R5M2 Fab (antibody, V domains shown)
VH: EVQLVESGGGLVQPGGSLRLSCAASGFDFSSYSIHWVRQAPGKGLEWVASISPYYGSTYYADSVKGRFTISADTSKNTAYLQMNSLRAEDTAVYYCARYYEWYKYDLYAGSLGFDYWGQGTLVTVSS
VL: DIQMTQSPSSLSASVGDRVTITCRASQSVSSAVAWYQQKPGKAPKLLIYSASSLYSGVPSRFSGSRSGTDFTLTISSLQPEDFATYYCQQGGYSLITFGQGTKVEIK
binding to LS2A clones (FIG. 17) [2]: weaker binding to LS2A R3M1 compared to LS2A R2M34

B6: Ab1044: LS2B; HC: S50A on Ab0902 (antibody, V domains shown)
VH: B2 VH with S50A
VL: B2 VL
Kd [2]: 8.6 nM
TM (° C.) ([3]; Table 15): 78.3 °C

B7: Ab0899: humanized LS2A R3M1 (protein)
scFv: QVQLVQSGAEVKKPGASVKVSCKASGYTFTSYWMHWVRQHPGQGLEWMGMIHPNSGGTNYAQKFQGRVTMTRDTSTSTVYMELSSLRSEDTAVYYCAMGDYVSRDYWGQGTLVTVSSGGGGSGGGGSGGGGSEIVLTQSPGTLSLSPGERATLSCRASSSVSSSYLHWYQQKPGQAPRLLIYSTSSRATGIPDRFSGSGSGTDFTLTISRLEPEDFAVYYCQQYSGYQFTFGQGTKLEIK
modifications: left off: a dimerising Fc or GST; small tags and cut ends
notes: humanized LS2A R3M1
TM (° C.) ([3]; scFv-Fc format, LS2A R3 (Table 20)): 56.1 °C
Kd [5]: 4.6 nM

Continued, in another order:

binding to LS2A clones (FIG. 17) [2]: improved affinities
B3: Ab1072: LS2B R7M1 Fab (antibody, V domains shown)
VH: B2 VH with S50A
VL: B2 VL

Kd [2]: 40 nM
B4: Ab1045: LS2B; HC: S50A+W98Y on Ab0902 (antibody, V domains shown)
VH: B2 VH with S50A, W102Y
VL: B2 VL
TM (° C.) ([3]; Table 15): 77.7 °C

binding to LS2A clones (FIG. 17) [2]: improved affinities
B5: Ab1073: LS2B R7M2 Fab (antibody, V domains shown)
VH: B2 VH with S50A, W102Y
VL: B2 VL
LITE Switch reversibility at constant Ab1073 and IDV ([4]; 50 nM Ab1073 and 1 μM IDV): no LITE Switch reversibility was observed
complex remaining after IDV washout ([4]; 2 hours, 50 nM Ab1073 and vehicle): ~0%
